{"source": "patent US7001748B2", "about": "“Methods of making polyketides using hybrid polyketide synthases” (The Board of Trustees of the Leland Stanford Junior …, priority 1999, dated 2006)", "molecules": {"B1": {"name": "holo-ACP4(4): DEBS ACP4 catalytic domain with its natural C-terminal linker, phosphopantetheinylated (protein)", "chain": "HHHHHHNVVDRLAGRSESDQVAGLAELVRSHAAAVSGYGSADQLPERKAFKDLGFDSLAAVELRNRLGTATGVRLPSTLVFDHPTPLAVAEHLRDRLFAASPAVDIGDRLDELEKALEALSAEDGHDDVGQRLESLLRRWNSRRADAPSTSAISEDASDDELFSMLDQRFGGGEDL", "modifications": "non-natural residues", "notes": "DEBS ACP4 catalytic domain with its natural C-terminal linker, phosphopantetheinylated"}}, "target": "T1, (5)M2+TE (Saccharopolyspora erythraea, UniProt Q03131+Q03133)", "T1 construct": "a single module of the DEBS PKS fused to the thioesterase (TE) termination region of module 6; made in house; host or cells: E. coli BL21(DE3); ACP4(4) from pNW8 (pET28a), phosphopantetheinylated in vitro with Sfp", "assay": "Labeling of holo-ACP4(4) with 14C-2a mediated by (5)M2+TE (back-transfer)", "type": "biochemical", "details": "presence and absence of (5)M2+TE", "method": "Labeling of Holo-ACP4(4) with ^14C-2a Mediated by (5)M2+TE. Holo-ACP4(4) (20 μM) was incubated with 1 mM [1-^14C]-labeled 2a (custom synthesized by Amersham Pharmacia, specific activity 55 mCi/mmol) and 1 μM (5)M2+TE in reaction buffer C for 10 min at 30° C. The protein was precipitated with 75% acetone/H2O for 5 min at −80° C. After washing the pellet with 6.25% (w/v) TCA to remove excess salts followed by 500 μL of 75% acetone/H2O to remove residual, unbound 14 C-2a, the precipitated protein was resuspended in 8 μL of buffer A and 4 μL of SDS sample buffer, and resolved on a 4-20% SDS-PAGE gradient gel (Bio-Rad). The proteins were visualized with Coomassie blue stain and dried, and the radioactivity was detected either on a Packard InstantImager or by exposing the gel to X-ray film.", "data": [{"molecule": "B1", "values": [{"measurement": "radiolabeling of ACP by 14C-2a", "result": "radiolabeled only in the reaction containing (5)-M2+TE"}]}]}
